In patent publication US20100093076A1, “SOLUBLE IL-27 RECEPTOR” (priority 2006, published 2010):
Each block holds one substance with its values, some of them ahead of it.

What was measured:
[1] = target: mouse IL-27 (single-chain molecule: EBI3 connected by its C-terminus to the N-terminus of IL-27 p28 via a polypeptide linker, amino-terminal peptide tag) (mouse) (UniProt O35228); experiment: cell-based or functional assay
[2] = target: human IL-27 (single-chain molecule: EBI3 connected by its C-terminus to the N-terminus of IL-27 p28 via a polypeptide linker, amino-terminal peptide tag) (human) (UniProt Q14213); experiment: cell-based or functional assay
[3] = target: mouse IL-27 (single-chain molecule: EBI3 connected by its C-terminus to the N-terminus of IL-27 p28 via a polypeptide linker, amino-terminal peptide tag) (mouse) (UniProt O35228); experiment: SPR (BIACORE 3000), receptor captured by anti-mouse Fc antibody on CM5 chip, ligand as analyte, 1:1 model with mass transport
[4] = target: mouse IL-27 (single-chain molecule: EBI3 connected by its C-terminus to the N-terminus of IL-27 p28 via a polypeptide linker, amino-terminal peptide tag) (mouse) (UniProt O35228); experiment: SPR (BIACORE 3000), receptor amine-coupled to CM5 chip, ligand as analyte, 1:1 model with mass transport
[5] = target: human IL-27 (single-chain molecule: EBI3 connected by its C-terminus to the N-terminus of IL-27 p28 via a polypeptide linker, amino-terminal peptide tag) (human) (UniProt Q14213); experiment: as above

IC50 (nM), inhibition of IL-27-induced STAT3 phosphorylation, mouse spleens, muIL-27 at EC90 0.2 nM [1]: 0.18 nM | IC50 (nM), inhibition of IL-27-induced STAT3 phosphorylation, total human PBMCs, muIL-27 at EC90 2 nM [1]: 4.83 nM | IL-2 concentration (pg/ml), naive mouse CD4 T cells, 48 hr, mIL-27RA 0 ug/ml (zero point, no soluble receptor present) + mouse IL-27 10 ng/ml [1]: 1260 pg/mL | IL-2 concentration (pg/ml), naive mouse CD4 T cells, 48 hr, mIL-27RA 5 ug/ml + mouse IL-27 10 ng/ml [1]: 4020 pg/mL | IL-2 concentration (pg/ml), naive mouse CD4 T cells, 48 hr, mIL-27RA 10 ug/ml (second row) + mouse IL-27 10 ng/ml [1]: 4920 pg/mL | IL-2 concentration (pg/ml), naive mouse CD4 T cells, 48 hr, mIL-27RA 10 ug/ml + mouse IL-27 10 ng/ml [1]: 5220 pg/mL | IL-2 concentration (pg/ml), naive mouse CD4 T cells, 72 hr, mIL-27RA 0 ug/ml (zero point, no soluble receptor present) + mouse IL-27 10 ng/ml [1]: 234 pg/mL | IL-2 concentration (pg/ml), naive mouse CD4 T cells, 72 hr, mIL-27RA 5 ug/ml + mouse IL-27 10 ng/ml [1]: 5740 pg/mL | IL-2 concentration (pg/ml), naive mouse CD4 T cells, 72 hr, mIL-27RA 10 ug/ml (second row) + mouse IL-27 10 ng/ml [1]: 12200 pg/mL | IL-2 concentration (pg/ml), naive mouse CD4 T cells, 72 hr, mIL-27RA 10 ug/ml + mouse IL-27 10 ng/ml [1]: 6700 pg/mL | block of the ability of mouse IL-27 to inhibit IL-2 production by naive CD4 T cells [1]: 50% | IC50 (nM), inhibition of IL-27-induced STAT3 phosphorylation, mouse spleens, huIL-27 at EC90 2 nM [2]: 9.3 nM | IC50 (nM), inhibition of IL-27-induced STAT3 phosphorylation, total human PBMCs, huIL-27 at EC90 2 nM [2]: 1370 nM | Kd [3]: 0.12 nM | koff [3]: 0.0012 s⁻¹ | kon [3]: 1e+07 M⁻¹ s⁻¹
Substance: IL27RAm(mFc1), mouse IL27RA-Fc fusion polypeptide (extracellular domain of mouse IL27RA and wild type BALB/c mouse gamma2a constant region Fc tag)

Kd [4]: 0.22 nM | koff [4]: 0.0018 s⁻¹ | kon [4]: 8.1e+06 M⁻¹ s⁻¹ | Kd [5]: 0.19 nM | koff [5]: 0.0019 s⁻¹ | kon [5]: 1e+07 M⁻¹ s⁻¹ | IC50 (nM), inhibition of IL-27-induced STAT3 phosphorylation, mouse spleens, muIL-27 at EC90 0.2 nM [1]: 0.14 nM | IC50 (nM), inhibition of IL-27-induced STAT3 phosphorylation, total human PBMCs, muIL-27 at EC90 2 nM [1]: 2.97 nM | IL-2 concentration (pg/ml), naive mouse CD4 T cells, 48 hr, hIL-27RA 0 ug/ml (zero point, no soluble receptor present) + mouse IL-27 10 ng/ml [1]: 1780 pg/mL | IL-2 concentration (pg/ml), naive mouse CD4 T cells, 48 hr, hIL-27RA 5 ug/ml + mouse IL-27 10 ng/ml [1]: 5780 pg/mL | IL-2 concentration (pg/ml), naive mouse CD4 T cells, 48 hr, hIL-27RA 10 ug/ml (second row) + mouse IL-27 10 ng/ml [1]: 5330 pg/mL | IL-2 concentration (pg/ml), naive mouse CD4 T cells, 48 hr, hIL-27RA 10 ug/ml + mouse IL-27 10 ng/ml [1]: 5770 pg/mL | IL-2 concentration (pg/ml), naive mouse CD4 T cells, 72 hr, hIL-27RA 0 ug/ml (zero point, no soluble receptor present) + mouse IL-27 10 ng/ml [1]: 1260 pg/mL | IL-2 concentration (pg/ml), naive mouse CD4 T cells, 72 hr, hIL-27RA 5 ug/ml + mouse IL-27 10 ng/ml [1]: 1870 pg/mL | IL-2 concentration (pg/ml), naive mouse CD4 T cells, 72 hr, hIL-27RA 10 ug/ml (second row) + mouse IL-27 10 ng/ml [1]: 17500 pg/mL | IL-2 concentration (pg/ml), naive mouse CD4 T cells, 72 hr, hIL-27RA 10 ug/ml + mouse IL-27 10 ng/ml [1]: 28600 pg/mL | block of the ability of mouse IL-27 to inhibit IL-2 production by naive CD4 T cells [1]: 50% | IC50 (nM), inhibition of IL-27-induced STAT3 phosphorylation, mouse spleens, huIL-27 at EC90 2 nM [2]: 0.32 nM | IC50 (nM), inhibition of IL-27-induced STAT3 phosphorylation, total human PBMCs, huIL-27 at EC90 2 nM [2]: 0.95 nM
Substance: human IL27RA-Fc5 fusion protein (Fc fusion)
